# Data published in patent US20130089560A1.
# B1: anti-BMPR1A antibody 5M107 (antibody, part only; not given: light chain and constant regions, V domains shown, part only)
# VH: EVQLQQSGPELVKPGTSVKISCKASGYSFTGYYMHWVKQSQVKSLEWIGRINPDNGGRTYNQIFKDKASLTVHKSSSTAYMELHSLTSDDSAVYYCTRERGQYGNYGGFSDWGQGTLVT
# Molecular target: human BMPR1A, endogenous on human Saos2 cells (human) (UniProt P36894)
# Assay: cell-based or functional assay
# Sequence of UniProt P36894 (P36894 24-532 limits assumed): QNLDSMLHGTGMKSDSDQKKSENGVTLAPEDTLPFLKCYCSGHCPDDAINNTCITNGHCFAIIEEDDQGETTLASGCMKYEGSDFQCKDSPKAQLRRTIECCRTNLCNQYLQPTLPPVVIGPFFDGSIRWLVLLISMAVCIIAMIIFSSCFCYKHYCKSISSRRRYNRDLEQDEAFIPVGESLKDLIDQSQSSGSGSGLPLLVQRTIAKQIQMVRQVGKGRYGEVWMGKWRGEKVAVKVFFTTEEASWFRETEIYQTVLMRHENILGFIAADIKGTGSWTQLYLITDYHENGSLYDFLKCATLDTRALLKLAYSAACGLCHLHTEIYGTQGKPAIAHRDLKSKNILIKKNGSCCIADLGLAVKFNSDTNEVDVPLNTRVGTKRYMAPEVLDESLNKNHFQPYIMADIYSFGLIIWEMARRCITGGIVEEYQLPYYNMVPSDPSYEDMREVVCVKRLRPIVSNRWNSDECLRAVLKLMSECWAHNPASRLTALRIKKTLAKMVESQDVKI
binder,measurement,value
B1,"Sp7 gene expression levels in Saos2 cells (qPCR, relative to control antibody)",2.4 fold
